# Reference: PMC9499535, “Distinct architectural requirements for the parS centromeric sequence of the pSM19035 plasmid partition machinery”
# T1: ParB_pSM19035 (ParBpSM, Omega) (plasmid pSM19035, UniProt Q57468 1-71)
# T1 sequence: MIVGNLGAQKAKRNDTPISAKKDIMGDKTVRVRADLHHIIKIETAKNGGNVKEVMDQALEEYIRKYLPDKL
# B1: ParBpSM wild-type (natural protein)
# chain: T1 sequence
# B2: ParBpSM-Alexa647 (ParBpSM-GCE, 1% labeled) (natural protein)
# chain: T1 sequence
# modifications: Alexa647 maleimide on the added cysteine (73C); 1% of the protein labelled
# B3: scrambled 55 bp (nsDNA) (dsDNA)
# DNA 1: GGGATCAAACACTTGATAGACAAGTCTTTGACCTAATTGTGAAAATTATGAAGGG
# DNA 2: CCCTTCATAATTTTCACAATTAGGTCAAAGACTTGTCTATCAAGTGTTTGATCCC
# Tests used:
# [1] = target: ParApSM-His6 (non-fluorescent, wild-type) (Streptococcus pyogenes (plasmid pSM19035)) (UniProt Q57280)
# [2] = target: ParApSM-His6 (non-fluorescent, wild-type) (Streptococcus pyogenes (plasmid pSM19035)) (UniProt Q57280); remark: listed apart in the source
# [3] = target: ParApSM-His6 (non-fluorescent, wild-type) (Streptococcus pyogenes (plasmid pSM19035)) (UniProt Q57280); remark: listed apart in the source
# [4] = target: ParApSM-His6 (non-fluorescent, wild-type) (Streptococcus pyogenes (plasmid pSM19035)) (UniProt Q57280); remark: listed apart in the source
# [5] = target: ParApSM-GFP-His6 (Streptococcus pyogenes (plasmid pSM19035)) (UniProt Q57280); assay: TIRF microscopy on an nsDNA-carpeted flow cell; ParApSM-GFP (1 μM, 1 mM ATP) bound first to the nsDNA-carpet to ~10% of saturation, then washed with 1 μM ParBpSM-Alexa647 without parSpSM; room temperature; 50 mM Tris-HCl pH 7.4, 100 mM KCl, 2 mM MgCl2, 10% glycerol, 1 mM ATP; apparent constants
# [6] = target: ParApSM^D60E-GFP-His6 (Streptococcus pyogenes (plasmid pSM19035)) (UniProt Q57280); assay: TIRF microscopy on an nsDNA-carpeted flow cell; ParApSM^D60E-GFP (1 μM) bound first to the nsDNA-carpet, then washed with 250 nM ParBpSM-Alexa647 plus 4R-parSpSM duplex (125 nM heptad); room temperature; 1 mM ATP
# [7] = target: ParApSM^D60E-GFP-His6 (Streptococcus pyogenes (plasmid pSM19035)) (UniProt Q57280); assay: TIRF microscopy on an nsDNA-carpeted flow cell; ParApSM^D60E-GFP (1 μM) bound first to the nsDNA-carpet, then washed with 250 nM ParBpSM-Alexa647 plus 3R-parSpSM duplex (125 nM heptad); room temperature; 1 mM ATP
# [8] = target: ParApSM-GFP-His6 (Streptococcus pyogenes (plasmid pSM19035)) (UniProt Q57280); assay: TIRF microscopy on an nsDNA-carpeted flow cell; ParApSM-GFP (1 μM) and ParBpSM-Alexa647 (1 μM) preincubated with 1 mM ATP and 4R-parSpSM (0.5 μM consensus repeats), infused over the nsDNA-carpet for 15 min, then washed with ATP buffer without proteins; room temperature; apparent constants
# [9] = target: ParApSM-GFP-His6 (Streptococcus pyogenes (plasmid pSM19035)) (UniProt Q57280); assay: TIRF microscopy on an nsDNA-carpeted flow cell; ParApSM-GFP bound first to the nsDNA-carpet to ~10% of saturation, then washed with 1 μM ParBpSM-Alexa647 plus 125 nM 4R-parSpSM duplex; room temperature; 1 mM ATP; apparent constants
# [10] = target: ParApSM-GFP-His6 (Streptococcus pyogenes (plasmid pSM19035)) (UniProt Q57280); assay: TIRF microscopy on an nsDNA-carpeted flow cell; ParApSM-GFP (1 μM) and ParBpSM-Alexa647 (1 μM) preincubated with 1 mM ATP and 3R-parSpSM (0.5 μM consensus repeats), infused over the nsDNA-carpet for 15 min, then washed with ATP buffer without proteins; room temperature; apparent constants
# [11] = target: ParApSM-GFP-His6 (Streptococcus pyogenes (plasmid pSM19035)) (UniProt Q57280); assay: TIRF microscopy on an nsDNA-carpeted flow cell; ParApSM-GFP bound first to the nsDNA-carpet to ~10% of saturation, then washed with 1 μM ParBpSM-Alexa647 plus 166 nM 3R-parSpSM duplex; room temperature; 1 mM ATP; apparent constants
# [12] = target: ParApSM-GFP-His6 (Streptococcus pyogenes (plasmid pSM19035)) (UniProt Q57280); assay: TIRF microscopy on an nsDNA-carpeted flow cell; ParApSM-GFP (1 μM) and ParBpSM-Alexa647 (1 μM) preincubated with 1 mM ATP and 7R-parSpSM (0.5 μM consensus repeats), infused over the nsDNA-carpet for 15 min, then washed with ATP buffer without proteins; room temperature; apparent constants
# [13] = target: ParApSM-GFP-His6 (Streptococcus pyogenes (plasmid pSM19035)) (UniProt Q57280); assay: TIRF microscopy on an nsDNA-carpeted flow cell; ParApSM-GFP bound first to the nsDNA-carpet to ~10% of saturation, then washed with 1 μM ParBpSM-Alexa647 plus 7R-parSpSM duplex; room temperature; 1 mM ATP; apparent constants
# [14] = target: ParApSM-GFP-His6 (Streptococcus pyogenes (plasmid pSM19035)) (UniProt Q57280); assay: TIRF microscopy on an nsDNA-carpeted flow cell; ParApSM-GFP (1 μM) and ParBpSM-Alexa647 (1 μM) preincubated with 1 mM ATP without parSpSM, infused over the nsDNA-carpet for 15 min, then washed with ATP buffer without proteins; room temperature; apparent constants
# [15] = target: ParApSM^D60E-GFP-His6 (Streptococcus pyogenes (plasmid pSM19035)) (UniProt Q57280); assay: TIRF microscopy on an nsDNA-carpeted flow cell; ParApSM^D60E-GFP (1 μM) bound first to the nsDNA-carpet, then washed with 250 nM ParBpSM-Alexa647 plus 36 nM 7R-parSpSM duplex; room temperature; 1 mM ATP; apparent constants
# [16] = target: T1, ParB_pSM19035 (ParBpSM, Omega); assay: EMSA; 2 mM Mg2+; EMSA: 50 mM Tris-HCl pH 7.4, 100 mM KCl, 2 mM MgCl2, 1 mM DTT, room temperature 15 min, 0.05 nM 32P-DNA, 4-12% PAGE. TIRF binding to the salmon sperm DNA carpet (undefined sequence pool) and ATPase assays not listed; conditions: protein: recombinant; tags: none stated; chain copies: 2; label: 32P; blunt
binder,measurement,setting,value
B1,"ParBpSM concentration for half-activation of the ParApSM ATPase at high 7R-parSpSM concentration, with nsDNA",[1],650 nM
same,"steady-state ParApSM ATPase turnover with 8 μM ParBpSM, scrambled-sequence duplex and nsDNA (pBR322), 37°C",[2],2.4 h^–1
same,"steady-state ParApSM ATPase turnover with ParBpSM, 7R-parSpSM duplex and nsDNA (pBR322), 37°C",[2],20.5 h^–1
same,"steady-state ParApSM ATPase turnover with ParBpSM, 3R-1nc-3R-parSpSM duplex and nsDNA, 37°C",[3],8.3 h^–1
same,"ParBpSM concentration at which the ParApSM ATPase stimulation saturates, with parSpSM DNA of 1-3 repeats and nsDNA",[4],2 µM
B2,ParBpSM/ParApSM ratio on the nsDNA-carpet after several min of washing (ParBpSM/ParApSM),[5],1
same,peak density on the ParApSM-bound nsDNA-carpet,[5],3000 dimers/μm^2
same,plateau density on the ParApSM-bound nsDNA-carpet,[5],2000 dimers/μm^2
same,ParBpSM/ParApSM ratio on the nsDNA-carpet at the initial ParBpSM overshoot peak (ParBpSM/ParApSM),[6],1.3
same,ParBpSM/ParApSM ratio on the nsDNA-carpet at the initial ParBpSM overshoot peak (ParBpSM/ParApSM),[7],0.6
same,ParBpSM/ParApSM ratio on the nsDNA-carpet at the end of 15 min of infusion (ParBpSM/ParApSM),[8],0.75
same,ParBpSM/ParApSM ratio on the nsDNA-carpet within 1 min of washing (ParBpSM/ParApSM),[8],0.5
same,koff-fast-B (66%),[8],1.9 min^–1
same,koff-slow-B,[8],0.23 min^–1
same,ParBpSM/ParApSM molar ratio on the nsDNA-carpet at the start of the dissociation burst (ParBpSM/ParApSM),[9],1.7
same,apparent koff of ParBpSM from the ParApSM-bound nsDNA-carpet after its peak (ParBpSM and 4R-parSpSM in the wash),[9],3.9 min^–1
same,ParBpSM density on the nsDNA-carpet relative to ParApSM after 15 min of infusion (ParBpSM/ParApSM),[10],0.67
same,koff of the fast-dissociating majority (~75%) of ParBpSM,[10],4 min^–1
same,ParBpSM/ParApSM ratio on the nsDNA-carpet (ParBpSM/ParApSM),[11],1.3
same,apparent koff-fast (~24%) of ParBpSM from the ParApSM-bound nsDNA-carpet (ParBpSM and 3R-parSpSM in the wash),[11],1.4 min^–1
same,apparent koff-slow of ParBpSM from the ParApSM-bound nsDNA-carpet (ParBpSM and 3R-parSpSM in the wash),[11],0.05 min^–1
same,ParBpSM/ParApSM ratio accumulated on the nsDNA-carpet (ParBpSM/ParApSM),[12],1.2
same,koff-fast-B (~70%),[12],1.1 min^–1
same,koff-slow-B,[12],0.13 min^–1
same,ParBpSM density on the nsDNA-carpet relative to carpet-bound ParApSM,[13],2 fold
same,ParBpSM/ParApSM molar ratio on the nsDNA-carpet at the start of the dissociation burst (ParBpSM/ParApSM),[13],2.8
same,apparent koff of ParBpSM from the ParApSM-bound nsDNA-carpet after its peak (ParBpSM and 7R-parSpSM in the wash),[13],2.4 min^–1
same,ParBpSM density on the nsDNA-carpet relative to ParApSM after 15 min of infusion (ParBpSM/ParApSM),[14],0.67
same,koff of the fast-dissociating majority (~75%) of ParBpSM,[14],7 min^–1
same,ParBpSM/ParApSM ratio on the nsDNA-carpet at the initial ParBpSM overshoot peak (ParBpSM/ParApSM),[15],1.75
same,apparent koff of ParBpSM from the ParApSM^D60E-bound nsDNA-carpet after its peak (ParBpSM and 7R-parSpSM in the wash),[15],0.036 min^–1
B3,Kd,[16],~1 µM
